Assay results published in patent US20240226230A1.

Biological target: phenylalanine and glycine rich nucleoporins (FG-Nups)
Assay: cell-based or functional assay

cells in which the accumulation of TDP-43 and Nup62 in cytoplasmic GR aggregates is abolished: 60 % of cells
Substance: FLAG-KPNB1 H1-8^WT (from UniProt Q14974 1-361)
